# Source: US20240317871A1 (IMMUNOMIC THERAPEUTICS, published 2024)
# Residue numbers refer to the chain shown, from its start.
# T1: human HVEM (human, UniProt Q92956 39-202, limits assumed)
# T1 sequence (looked up): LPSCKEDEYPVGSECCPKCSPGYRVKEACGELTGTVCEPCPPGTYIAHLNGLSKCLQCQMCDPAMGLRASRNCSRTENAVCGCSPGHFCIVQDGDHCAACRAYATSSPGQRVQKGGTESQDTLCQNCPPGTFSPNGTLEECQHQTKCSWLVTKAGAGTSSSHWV
# T2: murine HVEM (murine, UniProt Q80WM9 39-206, limits assumed)
# T2 construct: also called Mouse
# T2 sequence (looked up): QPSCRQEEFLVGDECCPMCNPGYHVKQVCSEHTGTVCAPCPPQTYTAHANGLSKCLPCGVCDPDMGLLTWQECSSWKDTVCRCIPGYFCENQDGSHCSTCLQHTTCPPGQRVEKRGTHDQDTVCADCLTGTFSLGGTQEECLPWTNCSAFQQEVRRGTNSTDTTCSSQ
# T3: cynomolgus monkey HVEM (cynomolgus monkey, UniProt A0A2K5W0R1 39-203)
# T3 sequence: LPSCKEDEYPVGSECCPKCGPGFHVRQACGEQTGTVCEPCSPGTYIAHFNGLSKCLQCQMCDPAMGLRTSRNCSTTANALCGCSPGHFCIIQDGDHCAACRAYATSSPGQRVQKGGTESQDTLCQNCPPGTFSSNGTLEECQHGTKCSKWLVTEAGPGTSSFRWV
# T4: Human HEVM recombinant protein (Sino Biological, 10334-H02H) (human, UniProt Q92956 39-202)
# T4 construct: construct known only by catalogue number; also called HVEM; human HVEM
# T4 sequence (looked up): T1 sequence (looked up)
# T5: His-tagged human HVEM (human, UniProt Q92956 39-202, limits assumed)
# T5 construct: Analyte of the BLI assay, 200 nM in PBS; not shown: His tag
# T5 sequence (looked up): T1 sequence (looked up)
# B1: Ab_009 (H5S14-8A7A) (antibody, V domains shown)
# VH: EVKLVESGGDLVKPGGSLKLSCAASGFTFSNYAMSWVRQTPEKRLEWVASISTGGTTSYYSDSVKGRFTISRDNARNILYLQMSSLRSEDTAMYYCARGGGGNYFWFTYWGQGTLVTISA
# VL: DVVMTQTPLSLPVSLGDQASISCRSSQSLVHSNGNTYLHWYLQKPGQSPKLLIYKVSNRFSGVPDRFSGSGSGTDFTLKISRVEAEDLGVYFCSQSTHVPFTFGSGTKLEIK
# notes: also called Ab_9
# B2: Ab_028 (H5S15-33A29A) (antibody, V domains shown)
# VH: QVQLKQSGPGLVQPSQSLSITCTVSGFSLTTYGVHWVRQSPGKGLEWLGVIWSGGNTDYNPAFISRLSISKDNSKSQVFFKMNTLQASDTAIYYCARRGYNKGYAMDYWGQGTSFTVSS
# VL: EIVLTQSPALMTASPGEKVTITCSVSSTISSRNLHWYQQKSEASPKPWIYGTSNLASGVPVRFSGSGSGTSYSLTISSMEAEDAATYYCQQWNSYPLTFGSGTKLEIK
# notes: also called Ab_28
# B3: Ab_079 (H5S20-22A18A) (antibody, V domains shown)
# VH: EVQLQQSGAELVKPGASVKLSCTASGFNIKDTYMHWVKQRPEQGLEWIGRIDPANGNTKYAPKFQGKATITADTSSNTAYLQLSSLTSEDTAVYYCARSFGNYFDYWGQGTTLTVSS
# VL: NIVLTQSPASLAVSLGQRATISCRASESVDSYGNSFMHWYQQKPGQPPKLLIYLASNLESGVPARFSGSGSRTDFTLTIDPVEADDAATYYCQQNYADPWTFGGGTKLEIK
# notes: also called Ab_79
# B4: Ab_006 (H5S14-5A5A) (antibody, V domains shown)
# VH: DVQLQESGPGLVKPSQSLSLTCTVTGYSITSDFAWNWIRQFPGNKLEWMGYIVYSGSTSYNPSLKSRISITRDTSKNQFFLQLNSVTAEDTATYFCTRGMDYWGQGTSVTVSS
# VL: QIVLTQSPAIISASLGEEVTLTCSASSSVSYMHWYQQKSGTSPKLLIYSTSNLASGVPSRFSGSGSGTFYSLTISSVEAEDAADYYCHQWSSYLTFGAGTKLELK
# notes: also called Ab_6
# B5: Ab_071 (H5S20-3B7A) (antibody, V domains shown)
# VH: QVQLQQSGAELVRPGTSVKISCKASGYTFTNSWLGWVKQRPGHGLEWIGDIYPGGGYNKYNEKFRGKATLTADTSSSTAYMQLSSLTSEDSAVYFCAGAMDYWGQGTSVTVSS
# VL: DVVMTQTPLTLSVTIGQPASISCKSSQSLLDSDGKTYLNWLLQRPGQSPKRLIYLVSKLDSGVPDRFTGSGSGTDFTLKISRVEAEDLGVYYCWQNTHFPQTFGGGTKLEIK
# notes: also called Ab_149; Ab_71
# B6: Ab_087 (H5S20-59A43A) (antibody, V domains shown)
# VH: EVKLVESGGGLVKPGGSLKLSCAASGFTFSSYAMSWVRQTPEKRLEWVASISSGSSTYYPDSVKGRFTISRDNARNILYLQMSSLRSEDTAMYYCAKGRGYGNYLYAMDYWGQGTSVTVSS
# VL: DIVMTQSQKFMSTSVGDRVSVTCKASQNVGTNVAWYQQKPGQSPKALIYSASYRYSGVPDRFTGSGSGTDFTLTISNVQSEDLAEYFCQQYNSYPLTFGGGTKLEIK
# notes: also called Ab_87
# B7: Ab_029 (H5S15-14A14B) (antibody, V domains shown)
# VH: EVQLQQSGPELVKPGASVKMSCKASGYTFTSYVMHWVKQKPGQGLEWIGYINPYNDDTNCNEKFKGKATLTSDKSSSTAYMELSRLTSEDSAVYYCAKARGYGSTFYYSMDYWGQGTSVTVSS
# VL: B6 VL with K39R, A46S, E85D, L96Y, T102A
# notes: also called Ab_29
# B8: Ab_054 (H5S19-21A17C) (antibody, V domains shown)
# VH: QVQLKESGPGLVAPSQSLSITCTVSGFSLTSYGVHWVRQPPGKGLEWLGVIWAGGITNYNSALMSRLSISTDNSRSQVFLKMNSLQTDDTAMYYCARDWERDSSGPFPYWGQGTLVTVSA
# VL: DIQMTQTTSSLSASLGDRVTISCSASQGISNYLNWYQQKPDGTVKLLIYYTSSLHSGVPSRFSGSGSGTDYSLTISNLEPEDIATYFCQQYSKLPWTFGGGTKLEIK
# notes: also called Ab_54
# B9: Ab_010 (H5S14-10A9A) (antibody, V domains shown)
# VH: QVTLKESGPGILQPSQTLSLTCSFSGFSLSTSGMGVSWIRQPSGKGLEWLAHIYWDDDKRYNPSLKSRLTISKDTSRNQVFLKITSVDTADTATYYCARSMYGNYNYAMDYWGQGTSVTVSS
# VL: DIQMTQSPASLSASVGETVTITCRASENIYSYLAWYQQKQGKSPQLLVYNAKTLAEGVPSRFSGSGSGTQFSLKINSLQPEDFGSYYCQHHYGTMYTFGGGTKLEIK
# notes: also called Ab_10
# B10: Ab_083 (H5S20-49A39A) (antibody, V domains shown)
# VH: EVQLQQSGAELVKPGASVKLSCTASGFNIKDTYVHWVKERPEQGLEWIGRIDPANDNTKYAPKFQVKATITADTSSNTAYLQLSSLTSEDNAVYYCAPYGNYPAWFAYWGQGTLVTVSA
# VL: DVLMTQTPLSLPVSLGDQVSISCRSSQNIVHSNGNTYLEWYLQKPGQSPKLLIYKVSNRFSGVPDRFSGSGSGTDFTLKISRVEAEDLGVYYCFQGSHVPLTFGAGTKLELK
# notes: also called Ab_153; Ab_83
# B11: Ab_026 (H5S15-11A3B) (antibody, V domains shown)
# VH: EVQLQQSGADLVKPGASVKLSCTASGFNIKDTYMHWVKQRPEQGLEWIGRIAPANGRTKYDPKFQGKATITADTSSNTAYLQLSSLTSEDTAVYYCANYYASSYDWFAYWGQGTLVTVSA
# VL: B10 VL with P12T, D17H, V19A, N28S
# notes: also called Ab_26
# B12: Ab_027 (H5S15-17A16A) (antibody, V domains shown)
# VH: B11 VH with D10E, R57K, Y60F, A101G, S102R, Y104N, A108V
# VL: B10 VL with V19A, N28S, N35I, K50E
# notes: also called Ab_27
# B13: Ab_025 (H5S15-2A2A) (antibody, V domains shown)
# VH: EVQLQQSGAELVKPGASVKLSCTASGFNIKDTYMHWVKQRPEQGLEWIGRIDPANDNTKYDPKFQGKATITADTSSNTAYLQLSSLTSEDTAVYYCARVYYAMDYWGQGTSVTVSS
# VL: DIQMTQSPASLSASVGETVTITCRASENIYSYLAWYQQKQGKSPQLLVYNAKTLAEGVPSRFSGSGSGTQFSLKINSLQPEDFGSYYCQHHYGTYTFGGGTKLEIK
# notes: also called Ab_25
# Molecular target: T1, human HVEM
# Test: ELISA
row,ELISA signal,Binder
1,3.11,B1
2,3.16,B2
3,2.97,B3
4,3.14,B4
5,3.08,B5
6,3.22,B6
7,3.33,B7
8,2.5,B8
9,2.68,B9
10,3.19,B10
11,3.1,B11
12,3.13,B12
13,3.01,B13

# Molecular target: T2, murine HVEM
# Test: ELISA
row,ELISA signal,Binder
1,0.047,B1
2,0.05,B2
3,0.054,B3
4,0.043,B4
5,0.047,B5
6,0.045,B6
7,0.045,B7
8,0.042,B8
9,0.044,B9
10,0.043,B10
11,0.043,B11
12,0.043,B12
13,0.045,B13

# Molecular target: T3, cynomolgus monkey HVEM
# Test: ELISA
row,ELISA signal,Binder
1,1.88,B1
2,2.19,B2
3,0.062,B3
4,2.69,B4
5,2.98,B5
6,0.069,B6
7,0.068,B7
8,2.23,B8
9,0.068,B9
10,0.06,B10
11,0.088,B11
12,0.064,B12
13,3.16,B13

# Molecular target: T4, Human HEVM recombinant protein (Sino …)
# Test: competition ELISA, competitor LIGHT-His
# Procedure: (§1) The competitive activity of HVEM antibody to BTLA or LIGHT was evaluated with ELISA-based competitive assay. Briefly Human HEVM recombinant protein (Sino Biological, 10334-H02H, 4 ug/ml, 100 ul/well) was coated to ELISA plate (Thermo Scientific, 469949, 4C overnight). A pre-mixture of HVEM antibody clone with seral dilution and 400 nM BTLA-His (R&D systems, 9235-BT-050) or LIGHT-His (SinoBiological, 10386-H07H) recombinant protein was made and added to the ELISA plate after blocking with 3% BSA (200 ul/well, RT 2 Hr) for 1 Hr at RT. The serial dilutions of HVEM antibody clone involve 7 different concentrations, with a 3-fold dilution performed start from 100 nM for BTLA or 325 nM for LIGHT competitive assay. The concentration was the final concentration. Plate was washed with PBST; diluted HRP-anti-His (Biolegend, 652504, 1:1000) with PBS containing 5% FBS was added 100 ul per well for 1 Hr at RT. TMB substrate (KPL, 52-00-00) 100 ul per well after washing and incubate at room temperature for 15 minutes; then stop the development by adding 100 ul stop solution (KPL, 50-85-06). Plate was read at 450 nm. The IC50 was calculated using GraphPad Prism software (GraphPad Software, Inc. San Diego, CA, USA).
row,IC50 [nM],Binder
1,24.6,B4
2,20.4,B5
3,369,B8

# Molecular target: T5, His-tagged human HVEM
# Test: BLI OctetRed96, mAb captured, 200 nM His-HVEM
# Procedure: Binding of antibodies to HVEM may also be determined by bio-layer interferometry (BLI) on an OctetRed96@ system (Sartorius). (See http://www.fortebio.com/bli_technology.html for general description of a BLI assay.) For this experiment, murine anti-human HVEM antibodies were captured from culture supernatant using anti-mouse IgG Fc capture and immobilized to dip and read biosensors. Sensors were then dipped into a solution of 200 nM His-tagged human HVEM in phosphate-buffered saline (PBS). Probes were dipped into PBS assay buffer and the dissociation rate (koff) was measured. The association rate (kₒₙ) and affinity (KD) were determined by curve fitting analysis.
Kd [nM],koff [s⁻¹],kon [M⁻¹ s⁻¹],Binder
35.1,0.0175,497000,B1
6.9,0.00266,386000,B2
13.9,0.0216,1.56e+06,B3
19.6,0.00692,353000,B4
2.2,0.00093,423000,B5
1570,0.323,206000,B6
47,0.0403,858000,B7
20.4,0.00291,143000,B8
7210,1.15,159000,B9
65.8,0.0167,254000,B10
11.1,0.00864,776000,B11
2.68,0.00171,639000,B12
11.6,0.00596,515000,B13

# Molecular target: T4, Human HEVM recombinant protein (Sino …)
# Test: competition ELISA, competitor BTLA-His
# Procedure: as §1
row,IC50 [nM],Binder
1,2.1,B1
2,1.4,B2
3,11,B3
4,5.2,B6
5,1.3,B7
6,11.3,B9
7,1.9,B10
8,2.4,B11
9,2.2,B12
10,10,B13
